Here are results for 2 molecules from patent US11110182B2, “Multifunctional RNA nanoparticles and methods for treating cancer and therapeutic resistant cancer” (University of Cincinnati, priority 2016, dated 2021).

In this data set the test system is MED1 mRNA. Put plainly: MED1 mRNA level by real-time PCR in BT474 cells. Format: cell-based, human. The conditions noted are these: BT474, 10 μg/mL, 48 h, direct incubation. As for the experimental part:
FIG. 3A) BT474 cells were incubated with 10 μg/mL control and pRNA-HER2apt-siMED1 nanoparticles for 48 h, and MED1 mRNA level was determined by real-time PCR. FIG. 3B) BT474 cells were incubated directly with (as indicated by -) or transfected with indicated pRNAs using lipofectamine 2000. At 48 h post treatment, MED1 protein levels were determined by western blotting. FIG. 3C) BT474 cells were treated with 10 μg/mL pRNA nanoparticles for 48 h and assayed for cell viability by MTT assay. FIG. 3D) Cells were treated as above and seeded for migration, and FIG. 3E) invasion transwell assays. Scale bar: 50 μm. FIG. 3F) After pRNA treatment for 48 h, the mRNA levels of ERα target genes TFF-1, FIG. 3G) c-Myc, and FIG. 3H) cyclin D1 in BT474 cells were determined by real-time PCR.
Cell culture. […] The hydrodynamic diameter and Tm value of pRNA nanoparticles were determined using dynamic light scattering and TGGE assay, respectively, as previously described.^54 The AFM imaging of the pRNA nanoparticles was performed at the University of Nebraska Medical Center imaging facility as previously reported.^55 Briefly, the pRNA nanoparticles (5 μL) were deposited on APS modified mica ^56 for a total of 2 min of incubation time. […] After washing three times with PBS, the cellular uptake of pRNAs was determined using a BD LSRFortessa™ flow cytometer. • Real-time PCR. […]

B1: pRNA-HER2apt-siMED1: 3-WJ pRNA nanoparticle bearing a HER2-targeting RNA aptamer and two different MED1 siRNAs; strands p1 SEQ ID NO: 3, p2 SEQ ID NO: 4 (nucleic acid)
chain 1: GGACAGUGAAAGUGAGUCAAAGGAUCAAUCAUGGCCAAAGAUGUUACUUUGAGAGCCUU
chain 2: GGCUCUCAAAGUAACAUCUAAGGCCAUGUGUAUGUGGGGGGAGGACGAUGCGGUCUGCUGUGCUUGAUAUGCCCCAGACGACUCGCCCCCCACAUACUUUGUUGAUCCAAUGACUCACUUUCACUGUCCUU
modifications: 2'-F modification; third strand may lack entry; pRNA-HER2apt-siMED1, p1; pRNA-HER2apt-siMED1, p2
With B1, the “depletion of MED1 mRNA” value was ~70%.

B2: pRNA-HER2apt^mut-siMED1: control pRNA nanoparticle with mutant HER2 aptamer; strands p1 SEQ ID NO: 5, p2 SEQ ID NO: 6 (nucleic acid)
chain 1: B1 chain 1
chain 2: GGCUCUCAAAGUAACAUCUAAGGCCAUGUGUAUGUGGGAUGAGGAGUAUGAAGAUACCUGUACUUGAUAUGCCCCAGACGACAUUCCCCCCACAUACUUUGUUGAUCCAAUGACUCACUUUCACUGUCCUU
modifications: pRNA-HER2apt(mut)-siMED1, p1; pRNA-HER2apt(mut)-siMED1, p2
As to B2, the “depletion of MED1 mRNA” value is “not”.
